# Numbered stars: 1 amine (or outer) side, 2 acyl side, 3 side chain; on linkers, the order of the positions; unused ones are H or OH. Bridge positions count the residues as written; N and C are the ends. Side chains are listed from the residue outwards. Ends that are not written are not given here. * marks the point of attachment. C20 diacid = O=C(O)CCCCCCCCCCCCCCCCCCC(=O)*; γGlu = O=C(O)[C@H](CCC(=O)[*:2])N[*:1]
# T1: rat amylin receptor (rat calcitonin receptor + rat RAMP 3) (rat, UniProt P32214 25-516; Q9JJ73 23-147)
# T1 construct: whole, on cells; Membranes prepared from transiently transfected BHK tk'ts 13 cells; also called rAmylin-R; rat amylin 3(a) receptor
# T1 sequence (looked up) 1: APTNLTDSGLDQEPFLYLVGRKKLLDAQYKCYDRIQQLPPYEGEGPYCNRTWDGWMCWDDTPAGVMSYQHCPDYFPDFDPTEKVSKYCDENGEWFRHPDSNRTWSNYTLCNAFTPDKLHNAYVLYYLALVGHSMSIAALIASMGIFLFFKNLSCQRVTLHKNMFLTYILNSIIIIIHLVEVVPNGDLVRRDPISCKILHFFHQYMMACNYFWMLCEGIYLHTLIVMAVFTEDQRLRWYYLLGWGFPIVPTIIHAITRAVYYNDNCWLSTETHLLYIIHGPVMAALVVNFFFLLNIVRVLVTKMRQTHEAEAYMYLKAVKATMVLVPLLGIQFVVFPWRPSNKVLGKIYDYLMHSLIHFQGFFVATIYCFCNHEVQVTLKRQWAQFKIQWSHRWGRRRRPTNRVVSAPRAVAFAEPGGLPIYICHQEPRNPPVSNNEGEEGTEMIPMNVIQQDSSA
# T1 sequence (looked up) 2: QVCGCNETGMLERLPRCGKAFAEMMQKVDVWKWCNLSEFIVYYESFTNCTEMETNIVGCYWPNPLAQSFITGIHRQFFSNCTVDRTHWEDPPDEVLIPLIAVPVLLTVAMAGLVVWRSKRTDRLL
# T2: rat calcitonin receptor (rat, UniProt P32214 25-516)
# T2 construct: whole, on cells; Membranes prepared from transiently transfected BHK tk'ts 13 cells; also called rCTR; rat calcitonin (a) receptor
# T2 sequence (looked up): T1 sequence (looked up) 1
# T3: human calcitonin receptor (human, UniProt P30988 25-474)
# T3 construct: whole, on cells; Membranes from stably transfected BHK cells; also called hCTR; hCT
# T3 sequence (looked up): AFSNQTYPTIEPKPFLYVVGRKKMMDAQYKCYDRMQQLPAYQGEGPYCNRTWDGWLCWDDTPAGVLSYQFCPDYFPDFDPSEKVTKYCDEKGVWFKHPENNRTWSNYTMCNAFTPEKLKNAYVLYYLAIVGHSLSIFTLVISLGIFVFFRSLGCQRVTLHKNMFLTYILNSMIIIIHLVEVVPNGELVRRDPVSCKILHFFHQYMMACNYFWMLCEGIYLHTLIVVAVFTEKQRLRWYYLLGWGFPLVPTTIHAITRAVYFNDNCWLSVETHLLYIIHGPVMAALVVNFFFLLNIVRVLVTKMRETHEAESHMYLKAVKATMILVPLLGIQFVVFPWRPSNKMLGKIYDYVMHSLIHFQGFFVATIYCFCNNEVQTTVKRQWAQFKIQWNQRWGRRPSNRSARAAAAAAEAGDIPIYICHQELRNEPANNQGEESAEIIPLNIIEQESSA
# B1: N^-1-[(4S)-4-carboxy-4-(19-carboxynonadecanoylamino)butanoyl]-Gly[Arg1,His14,Arg17,Pro21,Pro27,His34]-h-amylin (peptide)
# peptide: {C20 diacid-γGlu}-GRCNTATCATQRLAHFLRHSSPNFGAIPSSTNVGHNTY-NH2
# modifications: disulfide 3-8
# SMILES: CC[C@H](C)[C@H](NC(=O)[C@H](C)NC(=O)CNC(=O)[C@H](Cc1ccccc1)NC(=O)[C@H](CC(N)=O)NC(=O)[C@@H]1CCCN1C(=O)[C@H](CO)NC(=O)[C@H](CO)NC(=O)[C@H](Cc1c[nH]cn1)NC(=O)[C@H](CCCNC(=N)N)NC(=O)[C@H](CC(C)C)NC(=O)[C@H](Cc1ccccc1)NC(=O)[C@H](Cc1c[nH]cn1)NC(=O)[C@H](C)NC(=O)[C@H](CC(C)C)NC(=O)[C@H](CCCNC(=N)N)NC(=O)[C@H](CCC(N)=O)NC(=O)[C@@H](NC(=O)[C@H](C)NC(=O)[C@@H]1CSSC[C@H](NC(=O)[C@H](CCCNC(=N)N)NC(=O)CNC(=O)CC[C@H](NC(=O)CCCCCCCCCCCCCCCCCCC(=O)O)C(=O)O)C(=O)N[C@@H](CC(N)=O)C(=O)N[C@@H]([C@@H](C)O)C(=O)N[C@@H](C)C(=O)N[C@@H]([C@@H](C)O)C(=O)N1)[C@@H](C)O)C(=O)N1CCC[C@H]1C(=O)N[C@@H](CO)C(=O)N[C@@H](CO)C(=O)N[C@H](C(=O)N[C@@H](CC(N)=O)C(=O)N[C@H](C(=O)NCC(=O)N[C@@H](Cc1c[nH]cn1)C(=O)N[C@@H](CC(N)=O)C(=O)N[C@H](C(=O)N[C@@H](Cc1ccc(O)cc1)C(N)=O)[C@@H](C)O)C(C)C)[C@@H](C)O
# notes: also called compound 100
# B2: N^-1-[(4S)-4-carboxy-4-(19-carboxynonadecanoylamino)butanoyl]-Gly[Arg1,Ala14,Arg17,Pro21,Pro27,His34]-h-amylin (peptide)
# peptide: {C20 diacid-γGlu}-GRCNTATCATQRLAAFLRHSSPNFGAIPSSTNVGHNTY-NH2
# modifications: disulfide 3-8
# SMILES: CC[C@H](C)[C@H](NC(=O)[C@H](C)NC(=O)CNC(=O)[C@H](Cc1ccccc1)NC(=O)[C@H](CC(N)=O)NC(=O)[C@@H]1CCCN1C(=O)[C@H](CO)NC(=O)[C@H](CO)NC(=O)[C@H](Cc1c[nH]cn1)NC(=O)[C@H](CCCNC(=N)N)NC(=O)[C@H](CC(C)C)NC(=O)[C@H](Cc1ccccc1)NC(=O)[C@H](C)NC(=O)[C@H](C)NC(=O)[C@H](CC(C)C)NC(=O)[C@H](CCCNC(=N)N)NC(=O)[C@H](CCC(N)=O)NC(=O)[C@@H](NC(=O)[C@H](C)NC(=O)[C@@H]1CSSC[C@H](NC(=O)[C@H](CCCNC(=N)N)NC(=O)CNC(=O)CC[C@H](NC(=O)CCCCCCCCCCCCCCCCCCC(=O)O)C(=O)O)C(=O)N[C@@H](CC(N)=O)C(=O)N[C@@H]([C@@H](C)O)C(=O)N[C@@H](C)C(=O)N[C@@H]([C@@H](C)O)C(=O)N1)[C@@H](C)O)C(=O)N1CCC[C@H]1C(=O)N[C@@H](CO)C(=O)N[C@@H](CO)C(=O)N[C@H](C(=O)N[C@@H](CC(N)=O)C(=O)N[C@H](C(=O)NCC(=O)N[C@@H](Cc1c[nH]cn1)C(=O)N[C@@H](CC(N)=O)C(=O)N[C@H](C(=O)N[C@@H](Cc1ccc(O)cc1)C(N)=O)[C@@H](C)O)C(C)C)[C@@H](C)O
# B3: N{-1}-[(4S)-4-carboxy-4-(19-carboxynonadecanoylamino)butanoyl]-Gly[Arg1,His14,Arg17,Pro21,Pro27]-h-amylin (peptide)
# peptide: {C20 diacid-γGlu}-GRCNTATCATQRLAHFLRHSSPNFGAIPSSTNVGSNTY-NH2
# modifications: disulfide 3-8
# SMILES: CC[C@H](C)[C@H](NC(=O)[C@H](C)NC(=O)CNC(=O)[C@H](Cc1ccccc1)NC(=O)[C@H](CC(N)=O)NC(=O)[C@@H]1CCCN1C(=O)[C@H](CO)NC(=O)[C@H](CO)NC(=O)[C@H](Cc1c[nH]cn1)NC(=O)[C@H](CCCNC(=N)N)NC(=O)[C@H](CC(C)C)NC(=O)[C@H](Cc1ccccc1)NC(=O)[C@H](Cc1c[nH]cn1)NC(=O)[C@H](C)NC(=O)[C@H](CC(C)C)NC(=O)[C@H](CCCNC(=N)N)NC(=O)[C@H](CCC(N)=O)NC(=O)[C@@H](NC(=O)[C@H](C)NC(=O)[C@@H]1CSSC[C@H](NC(=O)[C@H](CCCNC(=N)N)NC(=O)CNC(=O)CC[C@H](NC(=O)CCCCCCCCCCCCCCCCCCC(=O)O)C(=O)O)C(=O)N[C@@H](CC(N)=O)C(=O)N[C@@H]([C@@H](C)O)C(=O)N[C@@H](C)C(=O)N[C@@H]([C@@H](C)O)C(=O)N1)[C@@H](C)O)C(=O)N1CCC[C@H]1C(=O)N[C@@H](CO)C(=O)N[C@@H](CO)C(=O)N[C@H](C(=O)N[C@@H](CC(N)=O)C(=O)N[C@H](C(=O)NCC(=O)N[C@@H](CO)C(=O)N[C@@H](CC(N)=O)C(=O)N[C@H](C(=O)N[C@@H](Cc1ccc(O)cc1)C(N)=O)[C@@H](C)O)C(C)C)[C@@H](C)O
# notes: also called compound 99
# B4: N^-1-[(4S)-4-carboxy-4-(19-carboxynonadecanoylamino)butanoyl]-Gly[Arg1,His14,Arg17,Pro21,Pro27,Pro34]-h-amylin (peptide)
# peptide: {C20 diacid-γGlu}-GRCNTATCATQRLAHFLRHSSPNFGAIPSSTNVGPNTY-NH2
# modifications: disulfide 3-8
# SMILES: CC[C@H](C)[C@H](NC(=O)[C@H](C)NC(=O)CNC(=O)[C@H](Cc1ccccc1)NC(=O)[C@H](CC(N)=O)NC(=O)[C@@H]1CCCN1C(=O)[C@H](CO)NC(=O)[C@H](CO)NC(=O)[C@H](Cc1c[nH]cn1)NC(=O)[C@H](CCCNC(=N)N)NC(=O)[C@H](CC(C)C)NC(=O)[C@H](Cc1ccccc1)NC(=O)[C@H](Cc1c[nH]cn1)NC(=O)[C@H](C)NC(=O)[C@H](CC(C)C)NC(=O)[C@H](CCCNC(=N)N)NC(=O)[C@H](CCC(N)=O)NC(=O)[C@@H](NC(=O)[C@H](C)NC(=O)[C@@H]1CSSC[C@H](NC(=O)[C@H](CCCNC(=N)N)NC(=O)CNC(=O)CC[C@H](NC(=O)CCCCCCCCCCCCCCCCCCC(=O)O)C(=O)O)C(=O)N[C@@H](CC(N)=O)C(=O)N[C@@H]([C@@H](C)O)C(=O)N[C@@H](C)C(=O)N[C@@H]([C@@H](C)O)C(=O)N1)[C@@H](C)O)C(=O)N1CCC[C@H]1C(=O)N[C@@H](CO)C(=O)N[C@@H](CO)C(=O)N[C@H](C(=O)N[C@@H](CC(N)=O)C(=O)N[C@H](C(=O)NCC(=O)N1CCC[C@H]1C(=O)N[C@@H](CC(N)=O)C(=O)N[C@H](C(=O)N[C@@H](Cc1ccc(O)cc1)C(N)=O)[C@@H](C)O)C(C)C)[C@@H](C)O
# B5: N^ε1-[(4S)-4-carboxy-4-[[(4S)-4-carboxy-4-(19-carboxynonadecanoylamino)butanoyl]amino]butanoyl]-[Ser14,Arg17,Pro21,Pro27,Pro34,Glu35]-h-amylin (peptide)
# peptide: K([γGlu-γGlu-C20 diacid])CNTATCATQRLASFLRHSSPNFGAIPSSTNVGPETY-NH2
# modifications: disulfide 2-7; N-terminus assumed
# SMILES: CC[C@H](C)[C@H](NC(=O)[C@H](C)NC(=O)CNC(=O)[C@H](Cc1ccccc1)NC(=O)[C@H](CC(N)=O)NC(=O)[C@@H]1CCCN1C(=O)[C@H](CO)NC(=O)[C@H](CO)NC(=O)[C@H](Cc1c[nH]cn1)NC(=O)[C@H](CCCNC(=N)N)NC(=O)[C@H](CC(C)C)NC(=O)[C@H](Cc1ccccc1)NC(=O)[C@H](CO)NC(=O)[C@H](C)NC(=O)[C@H](CC(C)C)NC(=O)[C@H](CCCNC(=N)N)NC(=O)[C@H](CCC(N)=O)NC(=O)[C@@H](NC(=O)[C@H](C)NC(=O)[C@@H]1CSSC[C@H](NC(=O)[C@@H](N)CCCCNC(=O)CC[C@H](NC(=O)CC[C@H](NC(=O)CCCCCCCCCCCCCCCCCCC(=O)O)C(=O)O)C(=O)O)C(=O)N[C@@H](CC(N)=O)C(=O)N[C@@H]([C@@H](C)O)C(=O)N[C@@H](C)C(=O)N[C@@H]([C@@H](C)O)C(=O)N1)[C@@H](C)O)C(=O)N1CCC[C@H]1C(=O)N[C@@H](CO)C(=O)N[C@@H](CO)C(=O)N[C@H](C(=O)N[C@@H](CC(N)=O)C(=O)N[C@H](C(=O)NCC(=O)N1CCC[C@H]1C(=O)N[C@@H](CCC(=O)O)C(=O)N[C@H](C(=O)N[C@@H](Cc1ccc(O)cc1)C(N)=O)[C@@H](C)O)C(C)C)[C@@H](C)O
# notes: also called compound 120
# Molecular target: T1, rat amylin receptor (rat calcitonin …)
# Assay: SPA competition vs 125I-rat amylin, membranes (Assay VI)
row,IC50 [nM],Binder
1,11.2,B1
2,8.07,B2
3,0.436,{C20 diacid-γGlu}-GRCNTATCATQRLAAFLRHSSPNFGAIPSSTNVGPNTY-NH2 (disulfide 3-8)
4,2.7,B3
5,0.674,B4
6,0.161,B5

# Molecular target: T2, rat calcitonin receptor
# Assay: SPA competition vs 125I-calcitonin, membranes (Assay VIII)
row,IC50 [nM],Binder
1,311,B1
2,492,B2
3,56.3,{C20 diacid-γGlu}-GRCNTATCATQRLAAFLRHSSPNFGAIPSSTNVGPNTY-NH2 (disulfide 3-8)
4,216,B3
5,65.9,B4
6,140,B5

# Molecular target: T2, rat calcitonin receptor
# Assay: ratio of IC50 on rat calcitonin receptor to IC50 on rat amylin receptor
row,Ratio rCT/rAmylin binding,Binder
1,27.7,B1
2,60.9,B2
3,129,{C20 diacid-γGlu}-GRCNTATCATQRLAAFLRHSSPNFGAIPSSTNVGPNTY-NH2 (disulfide 3-8)
4,79.8,B3
5,97.7,B4
6,868,B5

# Molecular target: T3, human calcitonin receptor
# Assay: ratio of IC50 on human calcitonin receptor to IC50 on human amylin receptor
# Summary of the method: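 Competition binding by SPA with cell membranes (35 ng/μL) and SPA beads in 50 mM Hepes pH 7.4 with 1 mM CaCl2, 5 mM MgCl2, 0.1% OA and 0.02% Tween20. Incubated 120 min at 25 °C with shaking, then counted.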
row,Ratio hCT/hAmylin binding,Binder
1,65.3,B1
2,68.6,B2
3,26.5,{C20 diacid-γGlu}-GRCNTATCATQRLAAFLRHSSPNFGAIPSSTNVGPNTY-NH2 (disulfide 3-8)
4,100,B3
5,36.2,B4
6,45.3,B5
